Two molecules from PMC4464295, “Orthogonal dual-modification of proteins for the engineering of multivalent protein scaffolds” (Beilstein Journal of Organic Chemistry, 2015) can be followed below.

This assay addresses T1, Erythrina cristagalli lectin (Erythrina cristagalli, UniProt P83410 1-239).
T1 construct: also called ECL
T1 sequence (looked up): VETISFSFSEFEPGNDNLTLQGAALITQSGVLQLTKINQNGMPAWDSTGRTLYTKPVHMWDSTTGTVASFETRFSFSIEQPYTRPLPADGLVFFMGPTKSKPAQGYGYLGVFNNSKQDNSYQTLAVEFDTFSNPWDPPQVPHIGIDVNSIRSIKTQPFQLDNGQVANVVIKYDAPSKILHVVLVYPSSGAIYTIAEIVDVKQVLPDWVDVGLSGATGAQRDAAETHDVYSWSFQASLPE
As to the kind of experiment: SPR; BiacoreX; biotinylated TTL sample on streptavidin chip loaded to one third; at least five ECL concentrations (Gal-0 once at 100 µM ECL); equilibrium binding, Langmuir isotherm fit; KDs determined twice. As to conditions: both partners purified. Background: Surface plasmon resonance follows binding to a sensor surface in real time, without labels.

B1: Biotinylated thermophilic lipase from Thermoanaerobacter thermohydrosulfuricus with azidohomoalanine, carrying 1-2 galactose units (Gal-1) (enzyme)
chain: SQKAVEITYNGKTLRGMMHLPDDVKGKVPMVIMFHGFTGNKVESHFIFVKMSRALEKVGIGSVRFDFYGSGESDGDFSEMTFSSELEDARQILKFVKEQPTTDPERIGLLGLSMGGAIAGIVAREYKDEIKALVLWAPAFNMPELIMHESVKQYGAIMEQLGFVDIGGHKLSKDFVEDISKLNIFELSKGYDKKVLIVHGTNDEAVEYKVSDRILKEVYGDNATRVTIENADHTFKSLEWEKKAIEESVEFFKKELLKG
modifications: all Met replaced by azidohomoalanine (Aha), nine Aha residues; N-terminal Met/Aha excised; N-terminal Ser (Ser2) oxidised with NaIO4 to the aldehyde and joined to biotin hydroxylamine 1 by oxime ligation; 1-2 Aha residues joined to butynyl galactose 2 by CuAAC (positions not given)
On to B1, for which binding was put at a Kd of 70 µM.

B2: Biotinylated thermophilic lipase from Thermoanaerobacter thermohydrosulfuricus with azidohomoalanine, carrying 3-4 galactose units (Gal-3) (enzyme)
chain: SQKAVEITYNGKTLRGMMHLPDDVKGKVPMVIMFHGFTGNKVESHFIFVKMSRALEKVGIGSVRFDFYGSGESDGDFSEMTFSSELEDARQILKFVKEQPTTDPERIGLLGLSMGGAIAGIVAREYKDEIKALVLWAPAFNMPELIMHESVKQYGAIMEQLGFVDIGGHKLSKDFVEDISKLNIFELSKGYDKKVLIVHGTNDEAVEYKVSDRILKEVYGDNATRVTIENADHTFKSLEWEKKAIEESVEFFKKELLKG
modifications: all Met replaced by azidohomoalanine (Aha), nine Aha residues; N-terminal Met/Aha excised; N-terminal Ser (Ser2) oxidised with NaIO4 to the aldehyde and joined to biotin hydroxylamine 1 by oxime ligation; 3-4 Aha residues joined to butynyl galactose 2 by CuAAC (positions not given; two found by MS/MS, Table S5)
The molecule B2 yielded a Kd of 60 µM.

As a reminder, the Kd is the free concentration of one partner at which half of the binding sites on the other are occupied at equilibrium, for simple one-to-one binding. Low values mean a tighter complex, high ones a looser complex.
